Test results as given in paper doi:10.1101/2025.08.30.673307 (bioRxiv, 2025).

Biological target: the molecule itself
Assay: cryo-EM structure

B1: stomatin (STOM) fused at its C terminus with a Twin-Strep tag (natural protein, human, UniProt P27105 1-288, looked up)
chain: MAEKRHTRDSEAQRLPDSFKDSPSKGLGPCGWILVAFSFLFTVITFPISIWMCIKIIKEYERAIIFRLGRILQGGAKGPGLFFILPCTDSFIKVDMRTISFDIPPQEILTKDSVTISVDGVVYYRVQNATLAVANITNADSATRLLAQTTLRNVLGTKNLSQILSDREEIAHNMQSTLDDATDAWGIKVERVEIKDVKLPVQLQRAMAAEAEASREARAKVIAAEGEMNASRALKEASMVITESPAALQLRYLQTLTTIAAEKNSTIVFPLPIDMLQGIIGAKHSHLG
stoichiometry N: 16 subunits
